# Source: IntAct's records for PubMed 15504911
# B1: GRIP domain-containing protein RUD3 (Saccharomyces cerevisiae), Q12234 (parent)
# chain: MGKNKKKTGKKAKSHPHVEDVDETVNKPEEIINSVNVTVPPKMSTDPEADGIVASPDDEGKDLSEGVDKQKVNDGLTVDTINPLEDKKAGDEMKELREEIERLKLELSHKKDQETPNEDFKNELANVIKERDEFKTQYDTLLSKISSMKSIFNKMKEAQKQLEEVQEQLTEYESQNLKLKKKLEATKTENSELQSTIVTLNTELENLEKEQESTEEVFLEYESRIEALEDEKHDIIEKHSKELNTYRKEKDQLNLQVQELMIILENNKQDISDLRTERDELRQALESHEKEKAVLKNSLNDLELKIEEVDNKREEEARERDQEVKSLRSQLDTEIETHNNDTEALESMKKQLEAMKEDASMKEKYEEESKQHILQIGKLRHEAIILNEHLTKALAMLKKSSDSESVDKELISNLLISFVSIPRADPRKFEVLELLSNFLNWDEDKKQQAGLISNNESKNSSAVSRTESFVSLWTNYLEKESEKD
# partner: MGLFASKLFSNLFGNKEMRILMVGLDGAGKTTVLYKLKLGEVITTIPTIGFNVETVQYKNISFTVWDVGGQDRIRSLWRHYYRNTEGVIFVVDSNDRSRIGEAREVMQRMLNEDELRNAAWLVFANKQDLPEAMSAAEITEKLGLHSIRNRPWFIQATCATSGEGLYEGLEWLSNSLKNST
# B2: ADP-ribosylation factor 1 (Saccharomyces cerevisiae), P11076 (parent)
# chain: B1 partner
# partner: B1 chain
# Variants of: B1
# Conditions: with arf1_yeast ARF1, P11076
row,Variant,effect of a mutation on the interaction
1,L410A,decreasing interaction

# Variants of: B2
# Conditions: with rud3_yeast RUD3, Q12234
row,Variant,effect of a mutation on the interaction
1,T32N,decreasing interaction
